This is an account of results in patent US6994974B1, “Intracellular amyloid-beta binding (ERAB) polypeptide-related assays” (The trustees of Columbia University in the city of New York, priority 1997, dated 2006).

The target of the series is T1, amyloid-beta peptide (1–42) (Homo sapiens, UniProt P05067).
T1 construct: the region encoding A4 (APP amino acids 653 to 694)
The series can be described thus: Binding of ^125I-TrcHis-ERAB polypeptide to amyloid-beta peptide (1–42) adsorbed to microtiter wells. The conditions noted are these: excess unlabelled protein. The method, then: FIGS. 2A, 2B, 2C, 2D, 2E, 2F, and 2G. […] FIG. 2A. SDS-PAGE (12%; reduced) followed by immunoblotting of TrcHis-ERAB polypeptide (FIG. 2A, lane 1; 2 μg) and TrcHis-chloramphenicol acetyltransferase (CAT; FIG. 2A, lane 2; 2 μg) fusion proteins using anti-ERAB polypeptide IgG (3 μg/ml). […] FIGS. 2B and 2C. […] Binding was analyzed by nonlinear least squares analysis using the method of Klotz and Hunston (60). FIG. 2E. […] FIGS. 2F and 2G. […] 0 indicates wells coated with albumin alone. […] Control TrcHis-CAT construct (Invitrogen) was also used to transform E. coli and the fusion protein was purified as above. Antibody to ERAB polypeptide was prepared by immunizing rabbits with ERAB polypeptide-derived peptides, corresponding to residues 100–116 and 133–147, conjugated to keyhole limpet hemocyanin. […] (for ERAB polypeptide) or overnight at 4° C. […] Unbound radioactivity was removed by washing wells five times with ice cold phosphate-buffered saline containing Tween 20 (0.05%), and bound radioactivity was eluted by incubation with Nonidet P-40 (1%).

B1: TrcHis-CAT: control fusion protein, TrcHis-chloramphenicol acetyltransferase (protein)
chain: MEKKITGYTTVDISQWHRKEHFEAFQSVAQCTYNQTVQLDITAFLKTVKKNKHKFYPAFIHILARLMNAHPEFRMAMKDGELVIWDSVHPCYTVFHEQTETFSSLWSEYHDDFRQFLHIYSQDVACYGENLAYFPKGFIENMFFVSANPWVSFTSFDLNVANMDNFFAPVFTMGKYYTQGDKVLMPLAIQVHHAVCDGFHVGRMLNELQQYCDEWQGGA
modifications: left off: small tags and cut ends
notes: control fusion protein, TrcHis-chloramphenicol acetyltransferase
On to B1, for which the “Inhibition of ^125I-TrcHis-ERAB binding to adsorbed amyloid-beta peptide” value is listed as “did not inhibit”.
